T1: human IL-4Rα on cells (human PBMC B cells and CD4+ T cells, Daudi cells, HEK-Blue IL-4/IL-13 cells, myeloid … (human, UniProt P24394 26-825))
T1 sequence: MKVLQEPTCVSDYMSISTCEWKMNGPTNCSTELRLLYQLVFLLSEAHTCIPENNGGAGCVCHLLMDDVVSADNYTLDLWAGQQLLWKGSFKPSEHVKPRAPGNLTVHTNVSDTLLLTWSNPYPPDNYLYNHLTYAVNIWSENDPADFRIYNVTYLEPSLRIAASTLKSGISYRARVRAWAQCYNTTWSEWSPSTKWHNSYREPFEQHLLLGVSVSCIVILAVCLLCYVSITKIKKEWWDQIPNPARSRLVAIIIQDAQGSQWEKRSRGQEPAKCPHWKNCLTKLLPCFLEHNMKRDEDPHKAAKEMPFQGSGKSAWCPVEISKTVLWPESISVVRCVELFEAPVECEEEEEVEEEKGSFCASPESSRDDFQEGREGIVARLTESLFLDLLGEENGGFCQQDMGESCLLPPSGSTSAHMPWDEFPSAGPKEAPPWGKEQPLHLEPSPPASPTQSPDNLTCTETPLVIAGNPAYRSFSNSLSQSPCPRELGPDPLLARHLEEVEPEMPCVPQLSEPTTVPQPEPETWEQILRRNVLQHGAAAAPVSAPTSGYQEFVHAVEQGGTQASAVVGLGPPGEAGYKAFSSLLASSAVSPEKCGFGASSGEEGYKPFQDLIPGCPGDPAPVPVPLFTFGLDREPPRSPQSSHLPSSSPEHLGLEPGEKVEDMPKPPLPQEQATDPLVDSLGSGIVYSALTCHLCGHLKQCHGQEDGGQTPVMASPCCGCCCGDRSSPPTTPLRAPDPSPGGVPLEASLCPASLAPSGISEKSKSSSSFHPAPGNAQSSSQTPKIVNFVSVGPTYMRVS

T2: hexahistidine-tagged human IL-4Rα extracellular domain (human, UniProt P24394 26-232)
T2 construct: In the MSD assay the plate coat is the His-tagged ECD; also called human IL-4Rα ECD; Wild type receptor; not shown: hexahistidine tag
T2 sequence: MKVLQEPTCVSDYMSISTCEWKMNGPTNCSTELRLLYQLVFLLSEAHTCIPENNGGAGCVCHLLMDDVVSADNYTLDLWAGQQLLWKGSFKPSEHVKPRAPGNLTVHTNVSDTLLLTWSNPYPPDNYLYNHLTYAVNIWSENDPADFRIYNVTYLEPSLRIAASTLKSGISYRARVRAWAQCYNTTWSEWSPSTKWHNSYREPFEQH

T3: hexahistidine-tagged cynomolgus monkey IL-4Rα extracellular domain (cynomolgus monkey, UniProt P24394 26-231 (human entry))
T3 construct: also called cynomolgus monkey IL-4Rα ECD; not shown: hexahistidine tag
T3 chain: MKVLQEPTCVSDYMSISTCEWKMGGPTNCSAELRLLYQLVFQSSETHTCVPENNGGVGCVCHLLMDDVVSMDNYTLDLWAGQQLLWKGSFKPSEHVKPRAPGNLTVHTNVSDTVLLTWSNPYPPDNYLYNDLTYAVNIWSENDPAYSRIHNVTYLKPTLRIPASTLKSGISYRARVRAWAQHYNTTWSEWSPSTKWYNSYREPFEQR


Legend:
[1] = molecular target: T1, human IL-4Rα on cells (human PBMC B …); assay: cell-based or functional assay
[2] = molecular target: T4, hexahistidine tagged human IL-4Rα ECD containing a C182L mutation (human, UniProt P24394 26-232); assay: X-ray co-crystal structure
T4 construct: Stated for the Ab9 Fab crystal; also called IL-4Rα ECD (crystallisation construct); not shown: hexahistidine tag

[3] = molecular target: T2, hexahistidine-tagged human IL-4Rα …; assay: competition MSD ELISA (solution equilibrium, 37 °C), apparent KD, single experiment
Experimental: (§1) Example 3a. […] A 96-well multi-array plate (Meso Scale Diagnostics, Cat. #L15XA-3) was coated at 4° C. overnight with 0.5 μg/mL hexahistidine-tagged human or cynomolgus monkey IL-4Rα ECD in phosphate buffered saline (PBS). Following coating, plates were washed 10 times with 200 μL PBST (PBS with 0.05% Tween® 20) and blocked with 300 μL/well of PBS casein blocking buffer (Pierce, Cat. #37528) at 37° C. for 1 hour. Plates were then washed 10 times as above, and 50 μL of the preincubated antibody:IL-4Rα dilution series was transferred to the wells and incubated at 37° C. with 300 rpm shaking for […]. Plates were washed 10 times with PBST, 50 μL of 1 μg/mL anti-human antibody sulfo-tag 20 (Meso Scale Diagnostics, Cat. #R32AJ-1) was added to the plates for the assay of Table 7a, and anti-Human NHP Kappa Light chain SULFO-TAG 20 (Meso Scale Diagnostics, Cat #D20TF-6) was added to the plates for the assay of Table 7b, and plates were incubated at 37° C. with 300 rpm shaking for 30 minutes. Plates were washed 10 times with PBST, 150 μL/well of 1× Read Buffer T was added to the wells and analyzed on a SECTOR® Imager 6000 (Meso Scale Diagnostics) 15 min after buffer addition. The apparent KD is determined by fitting a sigmoidal curve to the electrochemiluminescence (ECL) response vs. log (soluble IL-4Rα concentration) using GraphPad Prism 9. Data is graphed with normalized ECL values.

[4] = molecular target: T3, hexahistidine-tagged cynomolgus monkey …; assay: as above
Experimental: as §1

[5] = molecular target: T1, human IL-4Rα on cells (human PBMC B …); assay: flow cytometry on human PBMCs, B cells, Alexa Fluor 647 labelled antibody
Experimental: Example 3b. Binding to B cells and T cells: Binding of the exemplified anti-human IL-4Rα antibodies to B cells and T cells was tested in a Fluorescence Activated Cell Sorting (FACS) assay. […] Freshly isolated cells PBMCs were resuspended at 2×10⁶ cells/mL and allowed to rest for 15 minutes at room temperature, then plated at 100 μL/well into a round bottom 96-well plate (COSTAR®) and washed with FACS buffer (PBS containing 2% fetal bovine serum from Corning®). Exemplified anti-human IL-4Rα antibodies and the respective control IgG antibodies conjugated to Alexa Fluor® 647 according to manufacturer's protocol (Thermo Fisher Scientific) were added to the wells at 66.67 nM and diluted 4-fold in duplicate. Equivalent volume of 2× antibody cocktail containing: Human TruStain FcX™. FITC anti-human CD3 Antibody, Alexa Fluor® 700 anti-human CD4 Antibody (all from Biolegend®) and CD20 Monoclonal Antibody (2H7), PerCP-Cyanine5.5 (Thermo Fisher Scientific) was then added to the wells. Cells were incubated at 4° C. for 30 minutes, washed twice with FACS buffer and resuspended in a final volume of 100 μL FACS buffer. Viability dye, Sytox™ blue (Thermo Fisher Scientific), was added and the samples were analyzed via a flow cytometer (LSRFortessa™ X-20; BD BIOSCIENCES). Data analysis was performed using FlowJo software and statistical analysis was performed using GraphPad Prism 9. […]

IL-4 IC50 (nM): inhibition of IL-4 induced SEAP activity in HEK-Blue IL-4R and IL-13R expressing cells [1] | IL-13 IC50 (nM): inhibition of IL-13 induced SEAP activity in HEK-Blue IL-4R and IL-13R expressing cells [1] | binding result [2] | Binder | other results
0.03 nM | 0.24 nM |  | anti-human IL-4Rα antibody Ab9 (antibody, human IgG4 S228P, kappa, V domains shown) VH: QVQLVESGGGLVQPGGSLRLSCAASGFTFSHSSMNWVRQAPGKGLEWVSYISRATGAVYYADSVKGRFTISRDNAKNSLYLQMNSLRDEDTAVYYCAREPVFDYWGQGTLVTVSS VL: DIQMTQSPSAMSASVGDRVTITCRASQGISNYLAWFQQKPGKVPTRLIYAASSLQSGVPSRFSGSGSGTEFTLTISSLQPEDFATYYCLQWSSYPRTFGQGTKVEIKR | 
3.45 nM | > 35 nM |  | anti-human IL-4Rα antibody Ab10 (antibody, human IgG4 S228P, kappa, F234A L235A, V domains shown) VH: QVQLVESGGGLVQPGGSLRLSCAASGFTFSISSMNWVRQAPGKGLEWVSYISRATGAIYYADSVKGRFTISRNNAKNSLYLQMNSLRDEDTAVYYCAREPVFDYWGQGTLVTVSS VL: DIQMTQSPSAMSASVGDRVTITCRASQGISNYLAWFQQKPGKVPTRLIYAASSLQSGVPSRFSGSGSGTEFTLTISSLQPEDFATYYCLQHNSYPRTFGQGTKVEIKR | 
 |  | binds | Ab9 Fab (hexahistidine tagged IgG1 heavy chain truncated after CH1, Crystal Kappa light chain) (Fab, V domains shown, Construct for co-crystallisation; also called Fab portion of Ab9; Ab9 variant) VH: QVQLVESGGGLVQPGGSLRLSCAASGFTFSHSSMNWVRQAPGKGLEWVSYISRATGAVYYADSVKGRFTISRDNAKNSLYLQMNSLRDEDTAVYYCAREPVFDYWGQGTLVTVSS VL: DIQMTQSPSAMSASVGDRVTITCRASQGISNYLAWFQQKPGKVPTRLIYAASSLQSGVPSRFSGSGSGTEFTLTISSLQPEDFATYYCLQWSSYPRTFGQGTKVEIK | 
 |  | binds | Ab1 Fab (Crystal Kappa design) (Fab, V domains shown, Construct for co-crystallisation; also called Fab of the Ab1; anti-human IL-4Rα Ab1 Fab) VH: QVQLVESGGGLVQPGGSLRLSCVASGFTFSHSSMNWVRQAPGKGLEWVSYISRATGAVYYADSVKGRFTISRDNAKNSLYLQMNSLRDEDTAVYYCAREPVFDYWGQGTLVTVSS VL: DIQMTQSPSAMSASVGDRVTITCRASQDISNYLAWFQQKPGKVPTRLIYAASSLQSGVPSRFSGSGSGTEFTLTISSLQPEDFATYYCLQWSSYPRTFGQGTKVEIK | 
 |  |  | anti-human IL-4Rα antibody Ab4 (antibody, human IgG4 S228P, kappa) heavy: not shown light: DIQMTQSPSAMSASVGDRVTITCRASQDISNYLAWFQQKPGKVPTRLIYAASSLQSGVPSRFSGSGSGTEFTLTISSLQPEDFATYYCLQWSSYPRTFGQGTKVEIKRTVAAPSVFIFPPSDEQLKSGTASVVCLLNNFYPREAKVQWKVDNALQSGNSQESVTEQDSKDSTYSLSSTLTLSKADYEKHKVYACEVTHQGLSSPVTKSFNRGEC | Kd [3]: 0.0246 nM; Kd [4]: 0.0315 nM
 |  |  | effector null anti-human IL-4Rα antibody Ab8 (antibody, human IgG1, kappa, L234A L235A, Effector null backbone) heavy: QVQLVESGGGLVQPGGSLRLSCVASGFTFSHSSMNWVRQAPGKGLEWVSYISRATGAVYYADSVKGRFTISRDNAKNSLYLQMNSLRDEDTAVYYCAREPVFDYWGQGTLVTVSSASTKGPCVFPLAPSSKSTSGGTAALGCLVKDYFPEPVTVSWNSGALTSGVHTFPAVLQSSGLYSLSSVVTVPSSSLGTQTYICNVNHKPSNTKVDKRVEPKSCDKTHTCPPCPAPEAAGGPSVFLFPPKPKDTLMISRTPEVTCVVVDVSHEDPEVKFNWYVDGVEVHNAKTKPREEQYNSTYRVVSVLTVLHQDWLNGKEYKCKVSNKALAAPIEKTISKAKGQPREPQVYTLPPSREEMTKNQVSLTCLVKGFYPSDICVEWESNGQPENNYKTTPPVLDSDGSFFLYSKLTVDKSRWQQGNVFSCSVMHEALHNHYTQKSLSLSPGK light: DIQMTQSPSAMSASVGDRVTITCRASQDISNYLAWFQQKPGKVPTRLIYAASSLQSGVPSRFSGSGSGTEFTLTISSLQPEDFATYYCLQWSSYPRTFGQGTKVEIKRTVAAPSVFIFPPSDEQLKSGTASVVCLLNNFYPREAKVQWKVDNALQSGNSQESVTEQDSKDSTYSLSSTLTLSKADYEKHKVYACEVTHQGLSSPVTKSFNRGEC | EC50 [5]: 1.07 nM

From US20240100176A1 (Eli Lilly, published 2024)
